Consider 5 molecules from US10093741 (FUSION PHARMACEUTICALS, dated 2018).

Assay [1] deals with T1, insulin-like growth factor-1 receptor (IGF-1R) (human, UniProt P08069 31-1367). As to the kind of experiment: cell-based or functional assay.
For assay [2], the target named is T1, insulin-like growth factor-1 receptor …. Put plainly: cell-based or functional assay. The source holds these as a separate data set.
Assay [3] has the same target. As to the kind of experiment: saturation radioligand binding on IGF-1R expressing A431 cells, 4 °C, specific binding fitted to single-site model. How it is done: The purpose of this assay was to ensure that these new radioconjugates maintained binding characteristics consistent with the native antibody in an IGF-1R expressing A431 cell line. Twenty-four hours prior to the start of the experiment, 1.5×10^5 A431 cells were seeded in 48-well microplates in 500 μl supplemented medium. The radioconjugate was diluted with binding buffer (PBS+0.5% BSA) to a range of concentrations from 0.08 nM to 40 nM; final assay concentration 0.04 to 20 nM. At the start of the assay, the media is aspirated, discarded and 500 μl of serum-free DMEM was added to each well. The plates were incubated at 37° C. for 1 hour. Following incubation, media was aspirated from each well and discarded. The cells were washed and 100 μl of binding buffer (total binding assay) or, for non-specific binding assay, 4 μM cold-antibody was added to designated wells. Plates were incubated at 4° C. for 1 hour with mild shaking. Following the blocking step, 100 μl of radioimmunoconjugate was added to each well. The plates were then incubated at 4° C. for 2 hours. Following incubation, the contents of each well was aspirated and discarded. The cells were washed twice with PBS and were then lysed with 1% Triton-X-100. The lysates were transferred to counting tubes and run with radioconjugate standards on the Wizard 1470 gamma counter to determine the radioactivity content (in counts per minute (CPM)) for each lysate. The remaining lysate from each well (25 μl) was transferred to a 96-well plate, and the protein content of each lysate determined using a standard protein quantification assay. Total, non-specific and specific ligand binding determinations, mass of bound conjugate in each lysate were calculated by converting lysate CPM to fmol bound using the specific activity of the conjugate standards and then normalizing the fmol bound to the protein content of each lysate (in milligrams). Specific binding was determined by subtracting the non-specific binding from total binding. […]

Assay [4] has the same target. As to the kind of experiment: saturation radioligand binding on A431 epidermoid carcinoma cells. The method, then:
The plates were incubated at 37° C. for 1 h. Following incubation, media was aspirated from each well and discarded. The cells were washed and 100 µl of binding buffer (total binding) or 4 µM cold-antibody (non-specific binding) added to designated wells. Plates were incubated at 4° C. for 1 h with mild shaking. Following the blocking step, 100 µl of labeled conjugate was added to each well. The plates were then incubated at 4° C. for 2 h. Following incubation, the contents of each well was aspirated and discarded. The cells were washed twice with PBS and were then lysed with 1% Triton-X-100. The lysates were transferred to counting tubes and run with labeled conjugate standards on the Wizard 1470 gamma counter to determine the radioactivity content (in counts per minute (CPM)) for each lysate. The remaining lysate from each well (25 µl) was transferred to a 96-well plate, and the protein content of each lysate determined using a standard protein quantification assay. Total, non-specific and specific ligand binding determinations, mass of bound conjugate in each lysate were calculated by converting lysate CPM to fmol bound using the specific activity of the conjugate standards and then normalizing the fmol bound to the protein content of each lysate (in milligrams). Specific binding was determined by subtracting the non-specific binding from total binding. […]

Assay [5] shares this target. As to the kind of experiment: saturation radioligand binding on Du-145 cells (prostate). The method, then: (§1) Twenty-four hours prior to the start of the experiment, 1.5 ×10^5 cells were seeded in 48-well microplates in 500 µl supplemented medium. The radiolabeled conjugate was diluted with binding buffer (PBS+0.5% BSA) to a range of concentrations from 0.08 nM to 40 nM; final assay concentration 0.04 to 20 nM. At the start of the assay, the media is aspirated, discarded and 500 µl of serum-free DMEM was added to each well. The plates were incubated at 37° C. for 1 h. Following incubation, media was aspirated from each well and discarded. The cells were washed and 100 µl of binding buffer (total binding) or 4 µM cold-antibody (non-specific binding) added to designated wells. […] The lysates were transferred to counting tubes and run with labeled conjugate standards on the Wizard 1470 gamma counter to determine the radioactivity content (in counts per minute (CPM)) for each lysate. The remaining lysate from each well (25 µl) was transferred to a 96-well plate, and the protein content of each lysate determined using a standard protein quantification assay. Total, non-specific and specific ligand binding determinations, mass of bound conjugate in each lysate were calculated by converting lysate CPM to fmol bound using the specific activity of the conjugate standards and then normalizing the fmol bound to the protein content of each lysate (in milligrams). […]

Assay [6] shares this target. As to the kind of experiment: saturation radioligand binding on MiaPaca-II cells (pancreatic). How it is done: as §1
Assay [7] shares this target. Put plainly: saturation radioligand binding on H226 cells (NSCLC). The method, then: as §1
Assay [8] has the same target. Put plainly: saturation radioligand binding on A549 cells (NSCLC). The method, then: as §1
For assay [9] the target is unchanged. As to the kind of experiment: saturation radioligand binding on LnCaP cells (prostate). The method, then: as §1
Assay [10] shares this target. As to the kind of experiment: saturation radioligand binding on PC-3 cells (prostate). The method, then:
as §1

The target is the same in assay [11]. Put plainly: saturation radioligand binding on A431 cells (epidermoid carcinoma). How it is done: as §1
The target is the same in assay [12]. As to the kind of experiment: saturation radioligand binding on BxPC3 cells (pancreatic). How it is done:
as §1

T1 sequence (P08069 31-1367): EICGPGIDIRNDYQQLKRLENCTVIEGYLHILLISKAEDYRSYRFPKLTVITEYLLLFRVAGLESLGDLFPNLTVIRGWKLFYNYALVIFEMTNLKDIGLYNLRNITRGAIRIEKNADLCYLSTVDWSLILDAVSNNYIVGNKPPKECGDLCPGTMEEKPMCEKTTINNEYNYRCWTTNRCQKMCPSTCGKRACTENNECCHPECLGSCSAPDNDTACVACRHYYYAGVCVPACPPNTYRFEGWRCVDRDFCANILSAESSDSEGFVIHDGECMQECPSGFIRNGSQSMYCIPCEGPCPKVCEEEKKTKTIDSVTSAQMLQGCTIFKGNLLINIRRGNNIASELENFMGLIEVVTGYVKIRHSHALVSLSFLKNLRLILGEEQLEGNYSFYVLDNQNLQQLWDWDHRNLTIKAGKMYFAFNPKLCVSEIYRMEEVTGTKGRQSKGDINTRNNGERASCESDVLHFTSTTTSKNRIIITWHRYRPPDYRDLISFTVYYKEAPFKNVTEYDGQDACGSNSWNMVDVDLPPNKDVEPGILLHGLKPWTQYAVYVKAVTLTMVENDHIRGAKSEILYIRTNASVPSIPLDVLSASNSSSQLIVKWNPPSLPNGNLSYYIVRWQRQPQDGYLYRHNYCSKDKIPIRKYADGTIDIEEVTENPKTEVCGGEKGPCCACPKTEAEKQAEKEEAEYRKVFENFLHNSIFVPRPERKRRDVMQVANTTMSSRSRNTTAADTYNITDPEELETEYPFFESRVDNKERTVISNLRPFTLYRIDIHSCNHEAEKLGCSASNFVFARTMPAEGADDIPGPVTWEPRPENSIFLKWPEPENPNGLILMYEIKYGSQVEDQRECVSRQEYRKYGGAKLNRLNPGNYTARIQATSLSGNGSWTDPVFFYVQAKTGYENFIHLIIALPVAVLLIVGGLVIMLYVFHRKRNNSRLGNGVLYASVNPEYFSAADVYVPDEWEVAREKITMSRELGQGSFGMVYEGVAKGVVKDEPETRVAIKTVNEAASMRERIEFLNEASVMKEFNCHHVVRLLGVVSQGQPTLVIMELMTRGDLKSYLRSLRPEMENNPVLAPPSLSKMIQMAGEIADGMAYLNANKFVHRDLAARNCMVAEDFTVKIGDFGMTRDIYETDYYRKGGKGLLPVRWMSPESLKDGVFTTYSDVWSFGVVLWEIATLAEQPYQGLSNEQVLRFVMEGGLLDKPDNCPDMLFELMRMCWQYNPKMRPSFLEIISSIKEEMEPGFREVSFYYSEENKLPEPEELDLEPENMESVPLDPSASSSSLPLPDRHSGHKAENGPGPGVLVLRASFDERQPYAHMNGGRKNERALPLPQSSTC

B1: HuMIGF-1R (AVE1642) (antibody, human IgG1, kappa)
light: DVVMTQTPLSLPVSLGDPASISCRSSQSIVHSNVNTYLEWYLQKPGQSPRLLIYKVSNRFSGVPDRFSGSGAGTDFTLRISRVEAEDLGIYYCFQGSHVPPTFGGGTKLEIKRTVAAPSVFIFPPSDEQLKSGTASVVCLLNNFYPREAKVQWKVDNALQSGNSQESVTEQDSKDSTYSLSSTLTLSKADYEKHKVYACEVTHQGLSSPVTKSFNRGEC
heavy: not shown
Consider B1, for which the “Compound Potency (IC50; µg/mL): inhibition of IGF-1 ligand stimulated autophosphorylation of IGF-1R in A431 cells, phospho-IGF-1R ELISA” value in assay [1] worked out at 0.04 µg/mL. Moreover, in assay [2], the “Conjugate Potency (IC50; µg/mL): inhibition of IGF-1 ligand stimulated autophosphorylation of IGF-1R in A431 cells, phospho-IGF-1R ELISA; degree of substitution 0 DOTA/mAb (native antibody)” value is 0.04 µg/mL.

B2: [^177Lu]-Compound A-HuMIGF-1R (antibody)
light: DVVMTQTPLSLPVSLGDPASISCRSSQSIVHSNVNTYLEWYLQKPGQSPRLLIYKVSNRFSGVPDRFSGSGAGTDFTLRISRVEAEDLGIYYCFQGSHVPPTFGGGTKLEIKRTVAAPSVFIFPPSDEQLKSGTASVVCLLNNFYPREAKVQWKVDNALQSGNSQESVTEQDSKDSTYSLSSTLTLSKADYEKHKVYACEVTHQGLSSPVTKSFNRGEC
heavy: not shown
modifications: Compound A (DOTA-GA anhydride) chelate conjugated to the antibody, sites not stated; chelate loaded with 177Lu
notes: also called Commercial Standard
Usually Kd stands for the constant that tells how readily two partners part at equilibrium. Read a low Kd as higher affinity. For B2, the Kd in [3] is 2.9 nM.

B3: [^111In]-Compound C-HuMIGF-1R (antibody)
light: DVVMTQTPLSLPVSLGDPASISCRSSQSIVHSNVNTYLEWYLQKPGQSPRLLIYKVSNRFSGVPDRFSGSGAGTDFTLRISRVEAEDLGIYYCFQGSHVPPTFGGGTKLEIKRTVAAPSVFIFPPSDEQLKSGTASVVCLLNNFYPREAKVQWKVDNALQSGNSQESVTEQDSKDSTYSLSSTLTLSKADYEKHKVYACEVTHQGLSSPVTKSFNRGEC
heavy: not shown
modifications: Compound C (DOTA-GA with PEG3 linker, TFP ester) conjugated to the antibody, sites not stated; chelate loaded with 111In
In assay [4], B3 had a Kd of 6.9 nM. In addition, the “Compound Potency (IC50; µg/mL): inhibition of IGF-1 ligand stimulated autophosphorylation of IGF-1R in A431 cells, phospho-IGF-1R ELISA” value in [1] stood at 0.19 µg/mL.

B4: [^177Lu]-Compound B-HuMIGF-1R (antibody)
light: DVVMTQTPLSLPVSLGDPASISCRSSQSIVHSNVNTYLEWYLQKPGQSPRLLIYKVSNRFSGVPDRFSGSGAGTDFTLRISRVEAEDLGIYYCFQGSHVPPTFGGGTKLEIKRTVAAPSVFIFPPSDEQLKSGTASVVCLLNNFYPREAKVQWKVDNALQSGNSQESVTEQDSKDSTYSLSSTLTLSKADYEKHKVYACEVTHQGLSSPVTKSFNRGEC
heavy: not shown
modifications: Compound B (DOTA-GA with undecanoyl linker, TFP ester) conjugated to the antibody, sites not stated; chelate loaded with 177Lu
In assay [3], B4 showed a Kd of 2 nM.

B5: [^177Lu]-Compound C-HuMIGF-1R (antibody)
light: DVVMTQTPLSLPVSLGDPASISCRSSQSIVHSNVNTYLEWYLQKPGQSPRLLIYKVSNRFSGVPDRFSGSGAGTDFTLRISRVEAEDLGIYYCFQGSHVPPTFGGGTKLEIKRTVAAPSVFIFPPSDEQLKSGTASVVCLLNNFYPREAKVQWKVDNALQSGNSQESVTEQDSKDSTYSLSSTLTLSKADYEKHKVYACEVTHQGLSSPVTKSFNRGEC
heavy: not shown
modifications: Compound C (DOTA-GA with PEG3 linker, TFP ester) conjugated to the antibody, sites not stated; chelate loaded with 177Lu
With B5, the equilibrium dissociation constant (Kd) in [5] is 3 nM; in [6], 1.9 nM; in [3], 2.2 nM; in [7], 2.3 nM; in assay [8] it was 0.7 nM; in [9], 1.6 nM. For the same molecule, the results for the Kd in assay [10], in [11] and in assay [12] were 1.7 nM, 2.2 nM and 2.9 nM, respectively. Moreover, the “Compound Potency (IC50; µg/mL): inhibition of IGF-1 ligand stimulated autophosphorylation of IGF-1R in A431 cells, phospho-IGF-1R ELISA” value in assay [1] is 0.04 µg/mL.
